From article PMC8444507 (Signal Transduction and Targeted Therapy, 2021)
Where “and” joins values, the source holds several entries; their conditions need not be identical. Equal values may be shown once.

Biological target: T1, wild-type human ACE2 peptidase domain (PD) (human, UniProt Q9BYF1 19-615)
T1 construct: also called ACE2/WT; ACE2 WT
Assay: SPR
Settings: both partners purified

T1 sequence (Q9BYF1 19-615): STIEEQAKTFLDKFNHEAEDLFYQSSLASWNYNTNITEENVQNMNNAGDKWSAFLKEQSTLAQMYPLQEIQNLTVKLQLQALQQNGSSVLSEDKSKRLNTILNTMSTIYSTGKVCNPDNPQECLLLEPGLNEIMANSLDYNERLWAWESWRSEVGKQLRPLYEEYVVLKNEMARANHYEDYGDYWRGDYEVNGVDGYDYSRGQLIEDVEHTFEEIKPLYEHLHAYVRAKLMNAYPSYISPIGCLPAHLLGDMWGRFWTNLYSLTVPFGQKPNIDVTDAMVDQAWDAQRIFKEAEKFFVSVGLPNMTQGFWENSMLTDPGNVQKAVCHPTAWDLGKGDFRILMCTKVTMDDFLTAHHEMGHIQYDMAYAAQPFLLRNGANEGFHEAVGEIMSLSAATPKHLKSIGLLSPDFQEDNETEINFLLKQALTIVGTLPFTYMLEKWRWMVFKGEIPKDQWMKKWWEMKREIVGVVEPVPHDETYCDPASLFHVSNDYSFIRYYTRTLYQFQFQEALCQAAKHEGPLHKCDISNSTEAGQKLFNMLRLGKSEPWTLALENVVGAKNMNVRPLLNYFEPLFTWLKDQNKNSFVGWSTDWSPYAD

B1: SARS-CoV spike receptor-binding domain (S-RBD), wild-type (domain or fragment)
chain: not shown
Kd: 523 nM and 971 nM and 500 nM
